Patent publication US20150166606A1 (RA PHARMACEUTICALS, published 2015)
Where two headings read alike, the source gives them in different places. Bridge positions count the residues as written; N and C are the ends. Square brackets hold non-standard residues; d marks the D form. Ends that are not written are not given here. mXylyl = xylyl linker from dibromoxylene joining the two cysteines; NMeY = CN[C@@H](Cc1ccc(O)cc1)C(=O)O; NMeT = CN[C@H](C(=O)O)[C@@H](C)O; NMeS = CN[C@@H](CO)C(=O)O; Nva = CCC[C@H](N)C(=O)O

Tests used:
[1] = biological target: T1, Activated human plasma kallikrein (Enzyme Research Laboratories, HPKa 1303) (human, UniProt P03952 20-638); test: cell-based or functional assay
T1 sequence (P03952 20-638 limits assumed): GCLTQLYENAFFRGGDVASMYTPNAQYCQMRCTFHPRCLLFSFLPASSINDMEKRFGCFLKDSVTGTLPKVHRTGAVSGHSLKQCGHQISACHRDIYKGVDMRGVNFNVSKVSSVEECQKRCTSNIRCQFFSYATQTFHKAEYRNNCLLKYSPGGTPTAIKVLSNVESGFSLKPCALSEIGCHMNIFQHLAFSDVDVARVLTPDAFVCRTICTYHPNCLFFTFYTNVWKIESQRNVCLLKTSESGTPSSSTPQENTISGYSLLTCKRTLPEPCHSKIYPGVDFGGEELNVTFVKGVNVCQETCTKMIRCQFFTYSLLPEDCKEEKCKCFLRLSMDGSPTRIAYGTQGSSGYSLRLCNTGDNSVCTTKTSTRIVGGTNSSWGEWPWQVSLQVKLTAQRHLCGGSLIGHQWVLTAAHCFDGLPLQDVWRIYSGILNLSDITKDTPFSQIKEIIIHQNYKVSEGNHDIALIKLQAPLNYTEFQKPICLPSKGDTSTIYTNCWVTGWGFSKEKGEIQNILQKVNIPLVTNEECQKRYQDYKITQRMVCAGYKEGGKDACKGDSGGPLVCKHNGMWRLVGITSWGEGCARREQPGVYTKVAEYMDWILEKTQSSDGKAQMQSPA

[2] = biological target: T1, Activated human plasma kallikrein …; test: cell-based or functional assay; remark: listed apart in the source

Row | Avg. IC50 [1] [nM] | Avg. IC50 [2] [nM] | Binder
1 | 8.1 |  | Ac-CNYWSPWTA[dC]-NH2 (cysteine pairing not given here) [R2225]
2 |  | 65.3 | Ac-[Nva]NYWSPWTAC-NH2 (SMILES CCC[C@H](NC(C)=O)C(=O)N[C@@H](CC(N)=O)C(=O)N[C@@H](Cc1ccc(O)cc1)C(=O)N[C@@H](Cc1c[nH]c2ccccc12)C(=O)N[C@@H](CO)C(=O)N1CCC[C@H]1C(=O)N[C@@H](Cc1c[nH]c2ccccc12)C(=O)N[C@H](C(=O)N[C@@H](C)C(=O)N[C@@H](CS)C(N)=O)[C@@H](C)O) [R2139]
3 |  | 349 | MCNYWSPW-NH2 [R2114]
4 |  | 39.1 | Ac-CNAWSPWTEC-NH2 (cysteine pairing not given here) [R2133]
5 | 323 |  | Ac-CNYWSPW[dT]AC-NH2 (cysteine pairing not given here) [R2227]
6 |  | 88.8 | MCNYWSPWT-NH2 [R2113]
7 |  | 3.5 | Ac-CNYWSPWTECSA-NH2 (cysteine pairing not given here) [R2116]
8 |  | 4110 | Ac-CNYASPWTEC-NH2 (cysteine pairing not given here) [R2132]
9 |  | 58.8 | Ac-ANYWSPWTAA-NH2 [R2145]
10 |  | 25.5 | MCNYWSPWTSE-NH2 [R2123]
11 |  | 3.5 | MCNYWSPWTECS-NH2 (cysteine pairing not given here) [R2110]
12 |  | 5300 | Ac-CNYWSPATEC-NH2 (cysteine pairing not given here) [R2130]
13 |  | 2.5 | Ac-CNYWSPWTAC-NH2 (cysteine pairing not given here) [R2128]
14 | > 10600 |  | Ac-CNYWSP[dW]TAC-NH2 (cysteine pairing not given here) [R2228]
15 | > 14300 |  | Ac-CNYWS[dP]WTAC-NH2 (cysteine pairing not given here) [R2229]
16 |  | > 100000 | Ac-YWSPWTECSA-NH2 [R2118]
17 |  | 3.8 | MCNYWSPWTEC-NH2 (cysteine pairing not given here) [R2111]
18 |  | 48.4 | Ac-ANYWSPWTAC-NH2 [R2143]
19 |  | 105 | Ac-CNYWSPWTA[Nva]-NH2 (SMILES CCC[C@H](NC(=O)[C@H](C)NC(=O)[C@@H](NC(=O)[C@H](Cc1c[nH]c2ccccc12)NC(=O)[C@@H]1CCCN1C(=O)[C@H](CO)NC(=O)[C@H](Cc1c[nH]c2ccccc12)NC(=O)[C@H](Cc1ccc(O)cc1)NC(=O)[C@H](CC(N)=O)NC(=O)[C@H](CS)NC(C)=O)[C@@H](C)O)C(N)=O) [R2140]
20 | 926 |  | CNYWSPWTAA (also: Cyclo(1,10): ring between residues 1 and 10, bond kind not given here) [R2222]
21 |  | > 17300 | MCNYWSP-NH2 [R2115]
22 |  | 57.2 | Ac-CNYWSAWTEC-NH2 (cysteine pairing not given here) [R2137]
23 |  | 30.4 | MCNYWSPWTSEI-NH2 [R2122]
24 |  | 10.6 | Ac-CNYWSPWTECSA-NH2 (linker 1-10 via mXylyl) [R2125]

Row | Avg. IC50 [1] [nM] | Avg. IC50 [2] [nM] | Binder
25 |  | 6.1 | Ac-CNYWSPWTAC-NH2 (linker 1-10 via mXylyl) [R2136]
26 |  | 2.4 | MCNYWSPWTE-NH2 [R2112]
27 |  | 35.6 | Ac-CNYWSPWTEA-NH2 [R2127]
28 |  | 86.7 | Ac-CNYWSPWTC-NH2 (cysteine pairing not given here) [R2134]
29 |  | 43.9 | Ac-NYWSPWTECSA-NH2 [R2117]
30 |  | 17.5 | Ac-CNYWSPWAAC-NH2 (cysteine pairing not given here) [R2146]
31 |  | 12.3 | Ac-CNYWSPWAEC-NH2 (cysteine pairing not given here) [R2129]
32 |  | 127 | Ac-CNYWAPWTEC-NH2 (cysteine pairing not given here) [R2131]
33 |  | > 100000 | Ac-WSPWTECSA-NH2 [R2119]
34 |  | 2.7 | Ac-CNYWSPWTAC-NH2 (disulfide 1-10; SMILES CC(=O)N[C@H]1CSSC[C@@H](C(N)=O)NC(=O)[C@H](C)NC(=O)[C@H]([C@@H](C)O)NC(=O)[C@H](Cc2c[nH]c3ccccc23)NC(=O)[C@@H]2CCCN2C(=O)[C@H](CO)NC(=O)[C@H](Cc2c[nH]c3ccccc23)NC(=O)[C@H](Cc2ccc(O)cc2)NC(=O)[C@H](CC(N)=O)NC1=O) [R2142]
35 |  | 54.6 | MCNYWSPWTS-NH2 [R2124]
36 | 760 |  | Ac-CNY[dW]SPWTAC-NH2 (cysteine pairing not given here) [R2231]
37 | 222 |  | Ac-CNYWSPWT[dA]C-NH2 (cysteine pairing not given here) [R2226]
38 |  | > 100000 | Ac-SPWTECSA-NH2 [R2120]
39 | > 6580 |  | Ac-CNYW[dS]PWTAC-NH2 (cysteine pairing not given here) [R2230]
40 | > 100000 |  | Ac-CN[NMeY]W[NMeS]PW[NMeT]AC-NH2 (linker 1-10 via mXylyl) [R2223]
41 |  | 9.2 | MCNYWSPWTSEIC-NH2 (linker 2-13 via mXylyl) [R2109]
42 |  | 144 | Ac-CNYWSPWT-NH2 [R2135]
43 | > 100000 |  | Ac-CN[NMeY]W[NMeS]PW[NMeT]AC-NH2 (disulfide 1-10) [R2224]
44 |  | 22.3 | Ac-ANYWSPWTEC-NH2 [R2138]
45 |  | 95.5 | Ac-CNYWSPWTAA-NH2 [R2144]
46 |  | 1.4 | Ac-CNYWSPWTEC-NH2 (cysteine pairing not given here) [R2126]
47 |  | 10300 | Ac-PWTECSA-NH2 [R2121]
48 |  | 157 | Ac-[Nva]NYWSPWTA[Nva]-NH2 (SMILES CCC[C@H](NC(=O)[C@H](C)NC(=O)[C@@H](NC(=O)[C@H](Cc1c[nH]c2ccccc12)NC(=O)[C@@H]1CCCN1C(=O)[C@H](CO)NC(=O)[C@H](Cc1c[nH]c2ccccc12)NC(=O)[C@H](Cc1ccc(O)cc1)NC(=O)[C@H](CC(N)=O)NC(=O)[C@H](CCC)NC(C)=O)[C@@H](C)O)C(N)=O) [R2141]
